Measured values from patent US20230181753A1 (INSERM INSTITUT NATIONAL DE LA SANTE ET DE LA RECHERCHE …, published 2023).

T1: ICOS (Inducible T cell costimulator) (UniProt Q9Y6W8 21-199, limits assumed)
T1 sequence (looked up): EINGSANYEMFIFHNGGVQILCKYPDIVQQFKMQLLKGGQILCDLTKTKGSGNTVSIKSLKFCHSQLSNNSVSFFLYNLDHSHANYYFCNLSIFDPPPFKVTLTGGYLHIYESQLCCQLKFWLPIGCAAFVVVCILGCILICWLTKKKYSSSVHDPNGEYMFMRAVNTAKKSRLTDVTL

B1: 314.8 mAb (antibody, V domains shown)
VH: QVQLQQPGTELMKPGASVKLSCKASGYTFTTYWMHWVKQRPGQGLEWIGEIDPSDSYVNYNQNFKGKATLTVDKSSSTAYIQLSSLTSEDSAVYFCARSPDYYGTSLAWFDYWGQGTLVTVST
VL: DIVMTQAAPSVPVTPGESVSISCRSSKSPLHSNGNIYLYWFLQRPGQSPQLLIYRMSNLASGVPDRFSGSGSGTTFTLKISRVEAEDVGVYYCMQHLEYPYTFGGGTKLEIK
B2: anti-ICOS-MMAE ADC (anti-ICOS 314.8-MMAE) (antibody, V domains shown)
VH: B1 VH
VL: B1 VL
modifications: coupled to MMAE; site and linker not stated
B3: anti-ICOS-PBD ADC (antibody, V domains shown)
VH: B1 VH
VL: B1 VL
modifications: coupled to pyrrolobenzodiazepine (PBD); site and linker not stated

Key:
[1] = substrate: ICOS (Inducible T cell costimulator) (UniProt Q9Y6W8); test: flow cytometry, staining of MJ cells
[2] = substrate: ICOS (Inducible T cell costimulator) (UniProt Q9Y6W8); test: flow cytometry, staining of MyLa cells
[3] = substrate: ICOS (Inducible T cell costimulator) (UniProt Q9Y6W8); test: flow cytometry, staining of HUT78 cells
[4] = target: T1, ICOS (Inducible T cell costimulator); test: cell-based or functional assay

Binder	MFI ratio [1]	MFI ratio [2]	MFI ratio [3]	IC50, cell viability (alamarBlue), Jurkat-ICOS cells [4] [ng/mL]	IC50, cell viability (alamarBlue), MJ cells [4] [ng/mL]	IC50, cell viability (alamarBlue), MyLa cells [4] [ng/mL]	IC50, cell viability (alamarBlue), HUT78 cells [4] [ng/mL]
B1	96	144	4.5				
B2				6.7	36.2	8.2	
B3				0.7	0.8	1.2	9
